# Results reported in IntAct's records for PubMed 22582013.
# B1: Extracellular serine/threonine protein kinase FAM20C (Homo sapiens), Q8IXL6 (parent)
# chain: MKMMLVRRFRVLILMVFLVACALHIALDLLPRLERRGARPSGEPGCSCAQPAAEVAAPGWAQVRGRPGEPPAASSAAGDAGWPNKHTLRILQDFSSDPSSNLSSHSLEKLPPAAEPAERALRGRDPGALRPHDPAHRPLLRDPGPRRSESPPGPGGDASLLARLFEHPLYRVAVPPLTEEDVLFNVNSDTRLSPKAAENPDWPHAGAEGAEFLSPGEAAVDSYPNWLKFHIGINRYELYSRHNPAIEALLHDLSSQRITSVAMKSGGTQLKLIMTFQNYGQALFKPMKQTREQETPPDFFYFSDYERHNAEIAAFHLDRILDFRRVPPVAGRMVNMTKEIRDVTRDKKLWRTFFISPANNICFYGECSYYCSTEHALCGKPDQIEGSLAAFLPDLSLAKRKTWRNPWRRSYHKRKKAEWEVDPDYCEEVKQTPPYDSSHRILDVMDMTIFDFLMGNMDRHHYETFEKFGNETFIIHLDNGRGFGKYSHDELSILVPLQQCCRIRKSTYLRLQLLAKEEYKLSLLMAESLRGDQVAPVLYQPHLEALDRRLRVVLKAVRDCVERNGLHSVVDDDLDTEHRAASAR
# Variants of: B1
# Settings: with ostp_human SPP1, P10451
# ostp_human SPP1, P10451, sequence (P10451 whole entry): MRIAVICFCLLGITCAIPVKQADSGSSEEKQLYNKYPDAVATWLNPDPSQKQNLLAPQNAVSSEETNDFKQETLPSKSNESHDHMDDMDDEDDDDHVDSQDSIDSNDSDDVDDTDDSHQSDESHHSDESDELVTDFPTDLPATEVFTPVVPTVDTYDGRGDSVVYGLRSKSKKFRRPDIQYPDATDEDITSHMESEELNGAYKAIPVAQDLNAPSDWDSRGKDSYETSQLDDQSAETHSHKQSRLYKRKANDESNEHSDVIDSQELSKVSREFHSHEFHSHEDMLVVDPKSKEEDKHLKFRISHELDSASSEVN
row,Variant,effect of a mutation on the interaction
1,MKMMLVRRFRVLILMVFLVACALHIALDLLPRLERRGARPSGEPGCSCAQPAAEVAAPGWAQVRGRPGEPPAASSAAGDAGWPNKHTLRILQDFSSDPSSNLSSHSLEKLPPAAEPAERALRGRDPGALRPHDPAHRPLLRDPGPRRSESPPGPGGDASLLARLFEHPLYRVAVPPLTEEDVLFNVNSDTRLSPKAAENPDWPHAGAEGAEFLSPGEAAVDSYPNWLKFHIGINRYELYSRHNPAIEALLHDLSSQRITSVAMKSGGTQLKLIMTFQNYGQALFKPMKQTREQETPPDFFYFSDYERHNAEIAAFHLDRILDFRRVPSVAGRMVNMTKEIRDVTRDKKLWRTFFISPANNICFYGECSYYCSTEHALCGKPDQIEGSLAAFLPDLSLAKRKTWRNPWRRSYHKRKKAEWEVDPDYCEEVKQTPPYDSSHRILDVMDMTIFDFLMGNMDRHHYETFEKFGNETFIIHLDNGRGFGKYSHDELSILVPLQQCCRIRKSTYLRLQLLAKEEYKLSLLMAESLRGDQVAPVLYQPHLEALDRRLRVVLKAVRDCVERNGLHSVVDDDLDTEHRAASAR [P328S],with no effect
2,MKMMLVRRFRVLILMVFLVACALHIALDLLPRLERRGARPSGEPGCSCAQPAAEVAAPGWAQVRGRPGEPPAASSAAGDAGWPNKHTLRILQDFSSDPSSNLSSHSLEKLPPAAEPAERALRGRDPGALRPHDPAHRPLLRDPGPRRSESPPGPGGDASLLARLFEHPLYRVAVPPLTEEDVLFNVNSDTRLSPKAAENPDWPHAGAEGAEFLSPGEAAVDSYPNWLKFHIGINRYELYSRHNPAIEALLHDLSSQRNTSVAMKSGGTQLKLIMTFQNYRQALFKPMKQTREQETPPDFFYFSDYERHNAEIAAFHLDRILDFRRVPPVAGRMVNMTKEIRDVTRDKKLWRTFFISPANNICFYGECSYYCSTEHALCGKPDQIEGSLAAFLPDLSLAKRKTWRNPWRRSYHKRKKAEWEVDPDYCEEVKQTPPYDSSHRILDVMDMTIFDFLMGNMDRHHYETFEKFGNETFIIHLDNGRGFGKYSHDELSILVPLQQCCRIRKSTYLRLQLLAKEEYKLSLLMAESLRGDQVAPVLYQPHLEALDRRLRVVLKAVRDCVERNGLHSVVDDDLDTEHRAASAR [I258N;G280R],with no effect
3,MKMMLVRRFRVLILMVFLVACALHIALDLLPRLERRGARPSGEPGCSCAQPAAEVAAPGWAQVRGRPGEPPAASSAAGDAGWPNKHTLRILQDFSSDPSSNLSSHSLEKLPPAAEPAERALRGRDPGALRPHDPAHRPLLRDPGPRRSESPPGPGGDASLLARLFEHPLYRVAVPPLTEEDVLFNVNSDTRLSPKAAENPDWPHAGAEGAEFLSPGEAAVDSYPNWLKFHIGINRYELYSRHNPAIEALLHDLSSQRITSVAMKSGGTQLKLIMTFQNYGQALFKPMKQTREQETPPDFFYFSDYERHNAEIAAFHLDRILDFRRVPPVAGRMVNMTKEIRDVTRDKKLWRTFFISPANNICFYGECSYYCSTEHALCEKPDQIEGSLAAFLPDLSLAKRKTWRNPWRRSYHKRKKAEWEVDPDYCEEVKQTPPYDSSHRILDVMDMTIFDFLMGNMDRHHYETFEKFGNETFIIHLDNGRGFGKYSHDELSILVPLQQCCRIRKSTYLRLQLLAKEEYKLSLLMAESLRGDQVAPVLYQPHLEALDRRLRVVLKAVRDCVERNGLHSVVDDDLDTEHRAASAR [G379E],with no effect
4,MKMMLVRRFRVLILMVFLVACALHIALDLLPRLERRGARPSGEPGCSCAQPAAEVAAPGWAQVRGRPGEPPAASSAAGDAGWPNKHTLRILQDFSSDPSSNLSSHSLEKLPPAAEPAERALRGRDPGALRPHDPAHRPLLRDPGPRRSESPPGPGGDASLLARLFEHPLYRVAVPPLTEEDVLFNVNSDTRLSPKAAENPDWPHAGAEGAEFLSPGEAAVDSYPNWLKFHIGINRYELYSRHNPAIEALLHDLSSQRITSVAMKSGGTQLKLIMTFQNYGQALFKPMKQTREQETPPDFFYFSDYERHNAEIAAFHLDRILDFRRVPPVAGRMVNMTREIRDVTRDKKLWRTFFISPANNICFYGECSYYCSTEHALCGKPDQIEGSLAAFLPDLSLAKRKTWRNPWRRSYHKRKKAEWEVDPDYCEEVKQTPPYDSSHRILDVMDMTIFDFLMGNMDRHHYETFEKFGNETFIIHLDNGRGFGKYSHDELSILVPLQQCCRIRKSTYLRLQLLAKEEYKLSLLMAESLRGDQVAPVLYQPHLEALDRRLRVVLKAVRDCVERNGLHSVVDDDLDTEHRAASAR [K338R],with no effect

# Continued, values first:
row,effect of a mutation on the interaction,Variant
1,with no effect,MKMMLVRRFRVLILMVFLVACALHIALDLLPRLERRGARPSGEPGCSCAQPAAEVAAPGWAQVRGRPGEPPAASSAAGDAGWPNKHTLRILQDFSSDPSSNLSSHSLEKLPPAAEPAERALRGRDPGALRPHDPAHRPLLRDPGPRRSESPPGPGGDASLLARLFEHPLYRVAVPPLTEEDVLFNVNSDTRLSPKAAENPDWPHAGAEGAEFLSPGEAAVDSYPNWLKFHIGINRYELYSRHNPAIEALLHDLSSQRITSVAMKSGGTQLKLIMTFQNYGQALFKPMKQTREQETPPDFFYFSDYERHNAEIAAFHLDRILDFRRVPPVAGRMVNMTKEIRDVTRDKKLWRTFFISPANNICFYGECSYYCSTEHALCGKPDQIEGSLAAFLPDLSLAKRKTWRNPWRRSYHKRKKAEWEVDPDYCEEVKQTPPYDSSHRILDVMDMTIFDFLMGNMDRHHYETFEKFGNETFIIHLDNGRGFGKYSHDELSILVPLQQCCRIRKSTYLRLQLLAKEEYKLSLLMAESLRGDQVAPVLYQPHLEALDRWLRVVLKAVRDCVERNGLHSVVDDDLDTEHRAASAR [R549W]
2,with no effect,MKMMLVRRFRVLILMVFLVACALHIALDLLPRLERRGARPSGEPGCSCAQPAAEVAAPGWAQVRGRPGEPPAASSAAGDAGWPNKHTLRILQDFSSDPSSNLSSHSLEKLPPAAEPAERALRGRDPGALRPHDPAHRPLLRDPGPRRSESPPGPGGDASLLARLFEHPLYRVAVPPLTEEDVLFNVNSDTRLSPKAAENPDWPHAGAEGAEFLSPGEAAVDSYPNWLKFHIGINRYELYSRHNPAIEALLHDLSSQRITSVAMKSGGTQLKLIMTFQNYGQALFKPMKQTREQETPPDFFYFSDYERHNAEIAAFHLDRILDFRRVPPVAGRMVNMTKEIRDVTRDKKLWRTFFISPANNICFYGECSYYCSTEHALCGKPDQIEGSLAAFLPDLSLAKRKTWRNPWRRSYHKRKKAEWEVDPDYCEEVKQTPPYDSSHRILDVMDMTIFNFLMGNMDRHHYETFEKFGNETFIIHLDNGRGFGKYSHDELSILVPLQQCCRIRKSTYLRLQLLAKEEYKLSLLMAESLRGDQVAPVLYQPHLEALDRRLRVVLKAVRDCVERNGLHSVVDDDLDTEHRAASAR [D451N]
3,with no effect,MKMMLVRRFRVLILMVFLVACALHIALDLLPRLERRGARPSGEPGCSCAQPAAEVAAPGWAQVRGRPGEPPAASSAAGDAGWPNKHTLRILQDFSSDPSSNLSSHSLEKLPPAAEPAERALRGRDPGALRPHDPAHRPLLRDPGPRRSESPPGPGGDASLLARLFEHPLYRVAVPPLTEEDVLFNVNSDTRLSPKAAENPDWPHAGAEGAEFLSPGEAAVDSYPNWLKFHIGINRYELYSRHNPAIEALLHDLSSQRITSVAMKSGGTQLKLIMTFQNYGQALFKPMKQTREQETPPDFFYFSDYERHNAEIAAFHLDRILDFRRVPPVAGRMVNMTKEIRDVTRDKKLWRTFFISPANNICFYGECSYYCSTEHALCRKPDQIEGSLAAFLPDLSLAKRKTWRNPWRRSYHKRKKAEWEVDPDYCEEVKQTPPYDSSHRILDVMDMTIFDFLMGNMDRHHYETFEKFGNETFIIHLDNGRGFGKYSHDELSILVPLQQCCRIRKSTYLRLQLLAKEEYKLSLLMAESLRGDQVAPVLYQPHLEALDRRLRVVLKAVRDCVERNGLHSVVDDDLDTEHRAASAR [G379R]
4,with no effect,MKMMLVRRFRVLILMVFLVACALHIALDLLPRLERRGARPSGEPGCSCAQPAAEVAAPGWAQVRGRPGEPPAASSAAGDAGWPNKHTLRILQDFSSDPSSNLSSHSLEKLPPAAEPAERALRGRDPGALRPHDPAHRPLLRDPGPRRSESPPGPGGDASLLARLFEHPLYRVAVPPLTEEDVLFNVNSDTRLSPKAAENPDWPHAGAEGAEFLSPGEAAVDSYPNWLKFHIGINRYELYSRHNPAIEALLHDLSSQRITSVAMKSGGTQLKLIMTFQNYGQALFKPMKQTREQETPPDFFYFSDYERHNAEIAAFHLDRILDFRRVPPVAGRMVNMTKEIRDVTRDKKLWRTFFISPANNICFYGECSYYCSTEHALCGKPDQIEGSLAAFLPDLSLAKRKTWRNPWRRSYHKRKKAEWEVDPDYCEEVKQTPPYDSSHRILDVMDMTIFDFLMGNMDRHHYETFEKFGNETFIIHLANGRGFGKYSHDELSILVPLQQCCRIRKSTYLRLQLLAKEEYKLSLLMAESLRGDQVAPVLYQPHLEALDRRLRVVLKAVRDCVERNGLHSVVDDDLDTEHRAASAR [D478A]
